Laboratory results reported in PMC7301450.

Target: α-CD64-scFv
Assay: ELISA; wells coated with 10 μg/mL α-CD64-scFv overnight at 4 °C, blocked with 3% BSA/PBS; recombinant CD64 at 0, 0.5, 1.0, 5.0 and 10 ng/mL, room temperature 2 h; detected with rabbit anti-CD64 polyclonal antibody, anti-rabbit HRP and TMB, read at 370 nm

α-CD64-scFv, sequence (heavy, as listed by the source, chain 1 of 2): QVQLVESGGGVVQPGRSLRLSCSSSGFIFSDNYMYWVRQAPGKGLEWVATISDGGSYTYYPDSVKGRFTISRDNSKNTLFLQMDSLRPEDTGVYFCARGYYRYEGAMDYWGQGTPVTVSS
α-CD64-scFv, sequence (light, as listed by the source, chain 2 of 2): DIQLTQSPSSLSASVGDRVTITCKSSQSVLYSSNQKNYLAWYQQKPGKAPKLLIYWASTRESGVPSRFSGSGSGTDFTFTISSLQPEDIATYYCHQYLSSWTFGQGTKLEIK

- maximum absorbance (at 5 ng/mL CD64): 0.236 absorbance
Substance: recombinant human CD64 (from UniProt P12314 16-292) (receptor)
